Reference: patent US20240166765A1 (ICONIC THERAPEUTICS, published 2024)
Read-outs that look alike come from different tables or passages of the source. Values belong to the binder of their own block, whether it stands above or below them.

Legend:
[1] = molecular target: T1, human Tissue Factor (hTF), endogenously expressed on human TF-positive cells (human, UniProt P13726 33-295); assay: cell-based or functional assay
[2] = molecular target: T2, pig TF ECD-His (pig TF-His) protein (pig (Sus scrofa)); assay: Biacore, antibody captured by anti-human IgG on CM5 chip, pig TF-His as analyte
T2 construct: Extracellular domain with a C-terminal TG-His6 tag, used as analyte in Biacore; also called pTF
T2 chain: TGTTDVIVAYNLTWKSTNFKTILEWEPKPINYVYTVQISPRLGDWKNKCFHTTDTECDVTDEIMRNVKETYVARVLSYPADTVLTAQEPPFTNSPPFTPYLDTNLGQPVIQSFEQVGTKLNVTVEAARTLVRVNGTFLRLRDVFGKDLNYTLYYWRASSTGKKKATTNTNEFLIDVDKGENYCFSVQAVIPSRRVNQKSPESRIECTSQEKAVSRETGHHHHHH

[3] = molecular target: T1, human Tissue Factor (hTF), endogenously …; assay: flow cytometry competition on A431 cells, 100 nM unlabelled antibody, competitor 20 nM 25A-Alexa488
[4] = molecular target: T1, human Tissue Factor (hTF), endogenously …; assay: flow cytometry competition on A431 cells, 100 nM unlabelled antibody, competitor 20 nM 43Ea-Alexa488
human TF ECD-His6 = molecular target: T3, human TF ECD-His6 (human, UniProt P13726 33-251); assay: BLI (ForteBio Octet)
T3 construct: made in Expi293 cells; the entry holds the ECD with the C-terminal TG-His6; also called TF-His; hTF

cynomolgus TF ECD-His6 = molecular target: T4, cynomolgus TF ECD-His6 (cynomolgus monkey (Macaca fascicularis)); assay: BLI (ForteBio Octet)
T4 construct: made in Expi293 cells; also called TF-His; cTF
T4 chain: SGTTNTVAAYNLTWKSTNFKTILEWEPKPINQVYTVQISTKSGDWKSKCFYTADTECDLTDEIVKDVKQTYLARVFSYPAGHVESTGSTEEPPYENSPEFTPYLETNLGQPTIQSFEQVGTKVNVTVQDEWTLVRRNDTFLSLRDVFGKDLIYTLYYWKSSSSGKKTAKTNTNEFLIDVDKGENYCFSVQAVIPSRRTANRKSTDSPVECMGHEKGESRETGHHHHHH

pig TF-His [5] = molecular target: T5, pig TF-His (pig (Sus scrofa)); assay: SPR (Biacore), antibody captured by anti-human IgG
T5 construct: also called pig TF ECD-His; pTF
T5 chain: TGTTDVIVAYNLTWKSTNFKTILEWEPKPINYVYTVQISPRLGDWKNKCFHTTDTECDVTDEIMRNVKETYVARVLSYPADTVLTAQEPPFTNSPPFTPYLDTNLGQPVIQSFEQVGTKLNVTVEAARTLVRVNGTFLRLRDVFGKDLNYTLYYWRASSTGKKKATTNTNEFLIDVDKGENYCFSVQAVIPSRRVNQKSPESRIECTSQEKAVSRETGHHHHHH

rabbit TF-His [6] = molecular target: T6, rabbit TF-His (rabbit (Oryctolagus cuniculus), UniProt P24055 33-250); assay: SPR (Biacore), antibody captured by anti-human IgG
T6 construct: also called rabbit TF ECD-His
T6 sequence (P24055 other isoform, or with tags, fused parts or gaps): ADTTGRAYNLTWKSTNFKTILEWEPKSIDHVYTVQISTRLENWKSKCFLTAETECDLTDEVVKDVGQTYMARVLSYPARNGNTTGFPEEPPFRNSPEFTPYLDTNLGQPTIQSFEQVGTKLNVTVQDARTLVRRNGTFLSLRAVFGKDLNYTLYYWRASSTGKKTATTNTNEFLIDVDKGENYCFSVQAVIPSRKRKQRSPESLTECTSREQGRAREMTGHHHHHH

pig TF-His [7] = molecular target: T7, pig TF-His (pig (Sus scrofa)); assay: SPR (Biacore), antibody captured by anti-human IgG on CM5 chip, pig TF-His in solution
T7 construct: also called pig TF ECD-His; pTF
T7 chain: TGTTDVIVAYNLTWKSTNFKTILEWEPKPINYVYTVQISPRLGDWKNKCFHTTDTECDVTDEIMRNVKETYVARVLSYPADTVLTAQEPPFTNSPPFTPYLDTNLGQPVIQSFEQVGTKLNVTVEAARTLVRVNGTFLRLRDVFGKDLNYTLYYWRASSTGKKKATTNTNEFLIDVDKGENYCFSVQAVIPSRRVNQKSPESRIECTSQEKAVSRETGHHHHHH

rabbit TF-His [8] = molecular target: T8, rabbit TF-His (rabbit (Oryctolagus cuniculus), UniProt P24055 33-250); assay: SPR (Biacore), antibody captured by anti-human IgG on CM5 chip, rabbit TF-His in solution
T8 construct: also called rabbit TF ECD-His
T8 sequence (P24055 other isoform, or with tags, fused parts or gaps): as the sequence (P24055 other isoform, or with tags, fused parts or gaps) above

rTF (rat TF) [9] = molecular target: T9, rTF (rat TF) (rat, UniProt P42533 29-252); assay: live cell staining, flow cytometry
T9 construct: Expressed on the surface of transfected HEK293 cells

h1-107_r = molecular target: T10, h1-107_r (human/rat chimera); assay: live cell staining, flow cytometry
T10 construct: on HEK293 cells
T10 chain: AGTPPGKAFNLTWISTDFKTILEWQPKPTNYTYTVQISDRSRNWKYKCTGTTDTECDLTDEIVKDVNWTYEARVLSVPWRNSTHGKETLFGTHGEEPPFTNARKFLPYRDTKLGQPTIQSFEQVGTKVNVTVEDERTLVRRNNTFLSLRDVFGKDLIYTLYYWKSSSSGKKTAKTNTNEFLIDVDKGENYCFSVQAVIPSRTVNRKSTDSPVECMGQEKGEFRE

h1-77_r = molecular target: T11, h1-77_r (human/rat chimera); assay: live cell staining, flow cytometry
T11 construct: Human TF with ECD residues 1-77 replaced by the rat segment; on HEK293 cells

h159-219_r = molecular target: T12, h159-219_r (human/rat chimera); assay: live cell staining, flow cytometry
T12 construct: on HEK293 cells

hTF = molecular target: T13, hTF (human, UniProt P13726 33-251); assay: live cell staining, flow cytometry
T13 construct: also called human TF; human Tissue Factor

rTF (rat TF) [10] = molecular target: T9, rTF (rat TF); assay: live cell staining, flow cytometry; remark: listed apart in the source
r141-194_h = molecular target: T14, r141-194_h (rat/human chimera, UniProt P42533 29-252); assay: live cell staining, flow cytometry
T14 construct: on HEK293 cells

hTF_K149N = molecular target: T15, hTF_K149N (human, UniProt P13726 33-251); assay: live cell staining, flow cytometry
T15 construct: on HEK293 cells; not shown: transmembrane and cytoplasmic part of the construct expressed on HEK293 cells
T15 chain: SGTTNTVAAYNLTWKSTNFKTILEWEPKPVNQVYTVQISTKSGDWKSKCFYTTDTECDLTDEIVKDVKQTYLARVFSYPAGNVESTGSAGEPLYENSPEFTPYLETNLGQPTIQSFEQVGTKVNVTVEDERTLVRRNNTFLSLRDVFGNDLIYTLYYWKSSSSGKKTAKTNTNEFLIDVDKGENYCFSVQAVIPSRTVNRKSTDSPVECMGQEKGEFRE

hTF_N171H_T197K = molecular target: T16, hTF_N171H_T197K (human, UniProt P13726 33-251); assay: live cell staining, flow cytometry
T16 construct: on HEK293 cells
T16 chain: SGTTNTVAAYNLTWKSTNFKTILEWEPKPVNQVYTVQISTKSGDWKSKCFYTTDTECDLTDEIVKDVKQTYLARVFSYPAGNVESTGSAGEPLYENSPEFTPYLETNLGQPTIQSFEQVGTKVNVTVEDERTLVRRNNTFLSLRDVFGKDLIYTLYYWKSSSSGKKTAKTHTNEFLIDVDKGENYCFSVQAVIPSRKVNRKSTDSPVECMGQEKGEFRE

h108-219_r = molecular target: T17, h108-219_r (human/rat chimera); assay: live cell staining, flow cytometry
T17 construct: on HEK293 cells
T17 chain: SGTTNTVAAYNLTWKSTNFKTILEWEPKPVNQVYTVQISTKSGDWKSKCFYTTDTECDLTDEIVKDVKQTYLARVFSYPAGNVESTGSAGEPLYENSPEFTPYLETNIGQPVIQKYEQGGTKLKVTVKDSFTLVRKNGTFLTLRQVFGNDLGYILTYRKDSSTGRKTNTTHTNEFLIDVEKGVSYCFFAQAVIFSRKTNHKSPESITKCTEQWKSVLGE

B2: 29D (antibody, human IgG1, V domains shown)
VH: QVQLVESGGGVVQPGRSLRLSCAASGFTFHSRGMHWVRQAPGKGLEWVAVITYDGINKYYADSVEGRFTISRDNSKNTLYLQMNSLRAEDTAVYYCARDGVYYGVYDYWGQGTLVTVSS
VL: not shown
notes: human IgG1
Kd (human TF ECD-His6): 3.3 nM
Kd (cynomolgus TF ECD-His6): 12 nM
binding result (pig TF-His [5]): no binding (tested: TF-His titration from 100 nM)
binding result (rabbit TF-His [6]): no binding (tested: TF-His titration from 100 nM)

B4: 39A (antibody, human IgG1, V domains shown)
VH: QVQLVQSGAEVKKPGSSVKVSCKASGGTFSSNAIGWVRQAPGQGLEWMGSIIPIIGFANYAQKFQGRVTITADESTSTAYMELSSLRSEDTAVYYCARDSGYYYGASSFGMDVWGQGTTVTVSS
VL: EIVMTQSPATLSVSPGERATLSCRASQSVSSNLAWYQQKPGQAPRLLIYGASTRATGIPARFSGSGSGTEFTLTISSLQSEDFAVYYCEQYNNLPLTFGGGTKVEIK
notes: Human IgG1
Percent antibody binding to TF construct relative to hTF (rTF (rat TF) [9]): 0%
Percent antibody binding to TF construct relative to hTF (h1-107_r): 0%
Percent antibody binding to TF construct relative to hTF (h1-77_r): 0%
Percent antibody binding to TF construct relative to hTF (h159-219_r): 141%
Percent antibody binding to TF construct relative to hTF (hTF): 100%
Percent antibody binding to TF construct relative to hTF (rTF (rat TF) [10]): 0%
Percent antibody binding to TF construct relative to hTF (r141-194_h): 0%
Percent antibody binding to TF construct relative to hTF (hTF_K149N): 131%
Percent antibody binding to TF construct relative to hTF (hTF_N171H_T197K): 94%

B5: 5G9 (antibody, V domains shown)
VH: QVQLVESGGGVVQPGRSLRLSCKASGFNIKDYYMHWVRQAPGKGLEWIGLIDPENGNTIYDPKFQGRFTISADNSKNTLFLQMDSLRPEDTAVYYCARDNSYYFDYWGQGTPVTVSS
VL: DIQMTQSPSSLSASVGDRVTITCKASQDIRKYLNWYQQKPGKAPKLLIYYATSLADGVPSRFSGSGSGTDYTFTISSLQPEDIATYYCLQHGESPYTFGQGTKLEIT
notes: Previously described anti-TF antibody; also called humanized TF8-5G9; CNTO 860
Percent antibody binding to TF construct relative to hTF (h108-219_r): 0%

Continued, values first:

% GM-CSF, 2.56 nM antibody, MDA-MB-231 cells + FVIIa [1]: 38%
% GM-CSF, 6.4 nM antibody, MDA-MB-231 cells + FVIIa [1]: 15%
% GM-CSF, 16 nM antibody, MDA-MB-231 cells + FVIIa [1]: 7%
% GM-CSF, 40 nM antibody, MDA-MB-231 cells + FVIIa [1]: 6%
% GM-CSF, 100 nM antibody, MDA-MB-231 cells + FVIIa [1]: 5%
binding result [2]: no binding
% 25A binding [3]: 70%
% 43Ea binding [4]: 64%
B1: anti-TF antibody 29D (antibody, human IgG1, V domains shown)
VH: QVQLVESGGGVVQPGRSLRLSCAASGFTFHSRGMHWVRQAPGKGLEWVAVITYDGINKYYADSVEGRFTISRDNSKNTLYLQMNSLRAEDTAVYYCARDGVYYGVYDYWGQGTLVTVSS
VL: not shown
notes: Human IgG1

binding result (pig TF-His [7]): no binding
binding result (rabbit TF-His [8]): no binding
B3: 29D (antibody, human IgG1, V domains shown)
VH: QVQLVESGGGVVQPGRSLRLSCAASGFTFHSRGMHWVRQAPGKGLEWVAVITYDGINKYYADSVEGRFTISRDNSKNTLYLQMNSLRAEDTAVYYCARDGVYYGVYDYWGQGTLVTVSS
VL: not shown
notes: Human IgG1; also called antibody 29D
